Data published in patent publication US20260242478A1 (published 2026).
Where no end group is shown, it is not given here.

B1: Phage-2333 (peptide)
peptide: TVKWCIPSWMCQQS
B2: Phage-2330 (peptide)
peptide: EVKWCTPSWMCSGL
B3: Phage-2341 (peptide)
peptide: GEIWCTPSWMCWGL
B4: Phage-2332 (peptide)
peptide: VVNWCVPEWMCSGF
B5: Phage-2337 (peptide)
peptide: MVKLCIPEWMCDRQ
B6: Phage-2343 (peptide)
peptide: SDTWCIPAWMCEGR
B7: Phage-2342 (peptide)
peptide: ELMWCIPPWMCEHS
B8: Phage-2329 (peptide)
peptide: PEKWCIPPWMCTNF
modifications: cysteine pairing not given here; also: displayed on bacteriophage by fusion to pIII
B9: Phage-2335 (peptide)
peptide: ASNWCIPTWMCEGS
B10: Phage-2331 (peptide)
peptide: FEHWCTPEWMCLGM
B11: Phage-2334 (peptide)
peptide: EFIRCLPPWMCAGF
modifications: cysteine pairing not given here; also: displayed on bacteriophage by fusion to pIII
B12: Phage-2340 (peptide)
peptide: LVHMCKPAWMCTNL
B13: Phage-2339 (peptide)
peptide: EGISCVPNWMCVGF
B14: Phage-2336 (peptide)
peptide: EPKWCTPAWMCSIV
B15: Phage-2338 (peptide)
peptide: WYKWCTPAWMCEIS
B16: Phage-2346 (peptide)
peptide: WDRLCIPPWMCDVM
notes: Peptide-180 library clone, tested as clonal phage supernatant (peptide fused to the pIII filament of the bacteriophage)
B17: Phage-2345 (peptide)
peptide: FDMLCNPKWMCEGF
notes: as for B16
B18: Phage-2344 (peptide)
peptide: LMNWCTPAWMCTGF
notes: as for B16
B19: Phage-2290 (peptide)
peptide: VDKQCRPAWMCEIW
notes: tested as crude clonal phage supernatant
B20: Phage-2294 (peptide)
peptide: IHMLCSPPWMCVGL
notes: as for B19
B21: Phage-2293 (peptide)
peptide: VEKWCIPPWMCVNS
notes: as for B19
B22: Phage-2292 (peptide)
peptide: NSNWCIPSWMCADI
modifications: cysteine pairing not given here; also: displayed on bacteriophage by fusion to pIII
notes: as for B19
B23: Phage-2291 (peptide)
peptide: VEKWCIPAWMCQQS
notes: as for B19
B24: Phage-2295 (peptide)
peptide: DVMWCIPPWMCEHR
notes: as for B19
B25: Phage-2296 (peptide)
peptide: NVKWCTPPWMCFLD
notes: as for B19
B26: Phage-2297 (peptide)
peptide: THKWCIPVWMCEHQ
notes: as for B19
B27: Phage-2304 (peptide)
peptide: VQNWCIPAWMCEGK
B28: Phage-2309 (peptide)
peptide: IEKWCIPLWMCEMQ
B29: Phage-2307 (peptide)
peptide: YDRLCIPMWMCSSV
B30: Phage-2303 (peptide)
peptide: LTKWCIPEWMCAVE
modifications: cysteine pairing not given here; also: displayed on bacteriophage by fusion to pIII
B31: Phage-2301 (peptide)
peptide: SMKWCTPAWMCERL
B32: Phage-2298 (peptide)
peptide: WENWCTPEWMCNGF
modifications: cysteine pairing not given here; also: displayed on bacteriophage by fusion to pIII
B33: Phage-2302 (peptide)
peptide: FANWCTPSWMCNFT
B34: Phage-2310 (peptide)
peptide: MEIWCKPAWMCEST
B35: Phage-2305 (peptide)
peptide: EAKWCTPPWMCMSM
B36: Phage-2300 (peptide)
peptide: WVQWCIPPWMCEPS
B37: Phage-2312 (peptide)
peptide: EFKMCIPQWMCQHQ
B38: Phage-2308 (peptide)
peptide: EWKWCTPPWMCQYE
B39: Phage-2311 (peptide)
peptide: PEKWCIPDWMCTVY
B40: Phage-2299 (peptide)
peptide: MDNWCTPPWMCHGF
B41: Phage-2306 (peptide)
peptide: QNTWCIPPWMCEVF

Molecular target: T1, PSMA Fab (006 PSMA Fab) (biotinylated (site not stated))
T1 construct: also called Anti-PSMA Fab
Assay: phage ELISA on captured PSMA Fab, wells pre-incubated with PSMA antigen as competitor

Compared with B1, B2 is lower in “phage binding ELISA signal (Anti-PSMA Fab pre-incubated with PSMA antigen)” value: 0.102 for the first, 0.06 for the second.

Compared with B3, B4 is higher in “phage binding ELISA signal (Anti-PSMA Fab pre-incubated with PSMA antigen)” value: 0.0653 for the first, 0.0772 for the second.

Going from B5 to B6, the “phage binding ELISA signal (Anti-PSMA Fab pre-incubated with PSMA antigen)” value rises from 0.0609 to 0.0667.

Compared with B7, B8 is lower in “phage binding ELISA signal (Anti-PSMA Fab pre-incubated with PSMA antigen)” value: 0.0888 for the first, 0.065 for the second.

First: B9
Second: B10
The “phage binding ELISA signal (Anti-PSMA Fab pre-incubated with PSMA antigen)” value of the first is higher: 0.0671 for the first, 0.0623 for the second.

Compared with B11, B12 is lower in “phage binding ELISA signal (Anti-PSMA Fab pre-incubated with PSMA antigen)” value: 0.0734 for the first, 0.0708 for the second.

Going from B13 to B14, the “phage binding ELISA signal (Anti-PSMA Fab pre-incubated with PSMA antigen)” value falls from 0.119 to 0.0668.

In the case of B15, the “phage binding ELISA signal (Anti-PSMA Fab pre-incubated with PSMA antigen)” value is reported as 0.143.

Molecular target: T2, PSMA Fab
T2 construct: also called Anti-PSMA Fab; 006 PSMA Fab
Assay: clonal phage ELISA on captured PSMA Fab pre-incubated with PSMA antigen (competitor: PSMA)
Method: (§1) Clonal phage were harvested as crude supernatants and screened via standard ELISAs. […] Prior to the addition of clonal phage. wells were incubated with blocking buffer and PSMA antigen or blocking buffer alone. Without washing or aspirating, clonal phage supernatants were then added to the wells and incubated for a short time. Wells were then washed followed by detection of bound phage using a horse radish conjugated anti-M13 antibody.

First: B16
Second: B17
The “Phage binding ELISA signal, Anti-PSMA Fab with PSMA antigen” value of the first is higher: 0.0803 for the first, 0.0643 for the second.

In the case of B18, the “Phage binding ELISA signal, Anti-PSMA Fab with PSMA antigen” value is reported as 0.0919.

Molecular target: T2, PSMA Fab
Assay: clonal phage ELISA on biotinylated PSMA Fab captured on neutravidin, anti-M13 HRP detection;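 also: crude clonal phage supernatants added to wells pretreated with PSMA antigen in blocking buffer or with blocking buffer only, then briefly incubated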
Method: as §1

B16 and B17 are the same in “Phage binding ELISA signal, Anti-PSMA Fab” value: 1.43 for the first, 1.43 for the second.

With B18 the “Phage binding ELISA signal, Anti-PSMA Fab” value was 1.43.

Molecular target: T3, Anti-PSMA Fab (SEQ ID NOs: 19, 20)
T3 construct: Biotinylated and captured on neutravidin coated plates in the phage ELISA; also called 006 PSMA Fab
Assay: phage binding ELISA; clonal phage on plate-captured biotinylated PSMA Fab, anti-M13 HRP detection
Method: as §1

B19 and B20 are the same in “Anti-PSMA Fab (SEQ ID NOs: 19, 20) signal” value: 1.5 for the first, 1.5 for the second.

B21 and B22 are the same in “Anti-PSMA Fab (SEQ ID NOs: 19, 20) signal” value: 1.5 for the first, 1.5 for the second.

B23 and B24 are the same in “Anti-PSMA Fab (SEQ ID NOs: 19, 20) signal” value: 1.5 for the first, 1.5 for the second.

B25 and B26 are the same in “Anti-PSMA Fab (SEQ ID NOs: 19, 20) signal” value: 1.5 for the first, 1.5 for the second.

Molecular target: T1, PSMA Fab (006 PSMA Fab)
Assay: phage ELISA, clonal phage on biotinylated PSMA Fab captured on neutravidin plate, anti-M13 HRP detection;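 also: crude clonal phage supernatants added to wells preincubated with PSMA antigen in blocking buffer or with blocking buffer only, giving a competition and a no-competitor control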
Method: as §1

Compared with B1, B2 is higher in “Phage binding ELISA signal, Anti-PSMA Fab” value: 1.44 for the first, 1.45 for the second.

First: B3
Second: B4
The “Phage binding ELISA signal, Anti-PSMA Fab” value of the first is lower: 1.43 for the first, 1.45 for the second.

First: B5
Second: B6
The “Phage binding ELISA signal, Anti-PSMA Fab” value of the first is higher: 1.44 for the first, 1.43 for the second.

Going from B7 to B8, the “Phage binding ELISA signal, Anti-PSMA Fab” value rises from 1.43 to 1.45.

Going from B9 to B10, the “Phage binding ELISA signal, Anti-PSMA Fab” value rises from 1.44 to 1.45.

B11 and B12 are the same in “Phage binding ELISA signal, Anti-PSMA Fab” value: 1.44 for the first, 1.44 for the second.

B13 and B14 are the same in “Phage binding ELISA signal, Anti-PSMA Fab” value: 1.44 for the first, 1.44 for the second.

With B15 the “Phage binding ELISA signal, Anti-PSMA Fab” value was 1.44.

Molecular target: T3, Anti-PSMA Fab (SEQ ID NOs: 19, 20)
Assay: phage binding ELISA; plate-captured PSMA Fab pre-incubated with PSMA antigen as competitor, anti-M13 HRP detection
Method: as §1

First: B19
Second: B20
The “Anti-PSMA Fab signal in the presence of PSMA” value (“Anti-PSMA Fab signal” for short) of the first is higher: 0.0653 for the first, 0.0564 for the second.

First: B21
Second: B22
The “Anti-PSMA Fab signal” value of the first is lower: 0.0666 for the first, 0.0741 for the second.

First: B23
Second: B24
The “Anti-PSMA Fab signal” value of the first is lower: 0.0698 for the first, 0.106 for the second.

First: B25
Second: B26
The “Anti-PSMA Fab signal” value of the first is lower: 0.0656 for the first, 0.0929 for the second.

Molecular target: Anti-PSMA Fab (006 PSMA Fab)
Assay: clonal phage ELISA on biotinylated PSMA Fab captured on neutravidin; PSMA antigen as competitor; anti-M13-HRP detection
Method: as §1

Compared with B27, B28 is higher in “phage binding ELISA signal (Anti-PSMA Fab, wells pre-incubated with PSMA antigen)” value: 0.0686 for the first, 0.0726 for the second.

Compared with B29, B30 is higher in “phage binding ELISA signal (Anti-PSMA Fab, wells pre-incubated with PSMA antigen)” value: 0.0715 for the first, 0.102 for the second.

Compared with B31, B32 is lower in “phage binding ELISA signal (Anti-PSMA Fab, wells pre-incubated with PSMA antigen)” value: 0.115 for the first, 0.0767 for the second.

Going from B33 to B34, the “phage binding ELISA signal (Anti-PSMA Fab, wells pre-incubated with PSMA antigen)” value falls from 0.152 to 0.0714.

First: B35
Second: B36
The “phage binding ELISA signal (Anti-PSMA Fab, wells pre-incubated with PSMA antigen)” value of the first is lower: 0.0593 for the first, 0.14 for the second.

Going from B37 to B38, the “phage binding ELISA signal (Anti-PSMA Fab, wells pre-incubated with PSMA antigen)” value rises from 0.0622 to 0.0874.

First: B39
Second: B40
The “phage binding ELISA signal (Anti-PSMA Fab, wells pre-incubated with PSMA antigen)” value of the first is lower: 0.0815 for the first, 0.0898 for the second.

B41 was tested, and the “phage binding ELISA signal (Anti-PSMA Fab, wells pre-incubated with PSMA antigen)” value was 0.0806.

Molecular target: Anti-PSMA Fab (006 PSMA Fab)
Assay: clonal phage ELISA on biotinylated PSMA Fab captured on neutravidin; bound phage detected with anti-M13-HRP; no PSMA antigen
Method: as §1

B27 and B28 are the same in “Phage binding ELISA signal, Anti-PSMA Fab” value: 1.48 for the first, 1.48 for the second.

B29 and B30 are the same in “Phage binding ELISA signal, Anti-PSMA Fab” value: 1.48 for the first, 1.48 for the second.

B31 and B32 are the same in “Phage binding ELISA signal, Anti-PSMA Fab” value: 1.49 for the first, 1.49 for the second.

B33 and B34 are the same in “Phage binding ELISA signal, Anti-PSMA Fab” value: 1.48 for the first, 1.48 for the second.

Going from B35 to B36, the “Phage binding ELISA signal, Anti-PSMA Fab” value rises from 1.48 to 1.49.

First: B37
Second: B38
The “Phage binding ELISA signal, Anti-PSMA Fab” value of the first is lower: 1.47 for the first, 1.48 for the second.

Going from B39 to B40, the “Phage binding ELISA signal, Anti-PSMA Fab” value rises from 1.48 to 1.49.

In the case of B41, the “Phage binding ELISA signal, Anti-PSMA Fab” value is reported as 1.48.
